These results are taken from a protein production outcome set (Wang et al. 2014).

A short description of this data set: label from the status in PepcDB records.
In the case of “TRNTLDIRTVAHREADGSYRIKGEKFYSTGALFAHWVSIKALDDNGKTVMAFIERGTQGLRIVDDWSGFGQRTTASGTVLLDDVSVPAKQVVP”, the protein production result is reported as “failed”.

In the case of “TSIRQGASNVICAYRRDEENMPGSRREVKNAKEEGVKFMFNLQPLGIEVDAYGKVSGVKVVKTALGEPDDAGRRRPEPVEGSEHVLPADAVIMAFGFQPHQMDWLTPFNVELDQWGRIKAPNNQEFQYQTSNEKIFAGGDAVRGSDLVVTAIDEGRKAAEGILDYLDV”, the protein production result was “failed”.

On to “TSITPSSQDICRICHCEGDDESPLITPCHCTGSLHFVHQACLQQWIKSSDTRCCELCKYEFIMETKL”, for which the protein production result was “not failed”.

As to “TSSISPAKMANGTAGTKVALRKTKQAAEKISADKISKEALLECADLLSSALTEPVPNSQLVDTGHQLLDYCSGYVDCIPQTRNKFAFREA”, the protein production entry is “failed”.

With “TSTDAAGGDSYRVGINQLVQHPALDAATTGFKEAFEEAGVDVTFDEQNANGEQGTALTISQQFASDNLDLVLAVATPAAQATAQNITDIPVLFTAVTDAVSAELVDSNEAPGGNVTGTSDIAPIEQQLELLQQLVPDAKSIGIVYASGEVNSQVQVDEVTKAAEPLGLSVNTQTVTTVNEIQQAVEALGDVDVIYVPTDNMVVSGISSLVQVAEQKQIPVIGAESGTVEGGALATLGIDYTELGRQTGEMALRILQDGEDPATMPVETATEFTYVINEDAAERQGVEIPQEILDKAERV”, the protein production result is reported as “failed”.

For “TTAKPQQIQALMDEVTKQGNIVRELKAQKADKNEVAAEVAKLLDLKKQLAVAEGKPPEAPKGKKKK”, the protein production result is recorded as “not failed”.

Regarding “TTKKRVFHFGKGKSEGNKTMKELLGGKGANLAEMASIGLSVPPGFTVSTEACQQYQDAGCALPAGLWAEIVDGLQWVEEYMGATLGDPQRPLLLSVRSGAAVSMPGMMDTVLNLGLNDEVAAGLAAKSGERFAYDSFRRFLDMFGNVVMDIPRSLFEEKLEHMKESKGLKNDTDLTASDLKELVGQYKEVYLSAKGEPFPSDPKKQLELAVLAVFNSWESPRAKKYRSINQITGLRGTAVNVQCMVFGNMGNTSGTGVLFTRNPNTGEKKLYGEFLVNAQGEDVVAGIRTPEDLDAMKNLMPQAYDELVENCNILESHYKEMQDIEFTVQENRLWMLQCRTGKRTGKSAVKIAVDMVNEGLVEPRSAIKMVEPGHLDQLLHPQFENPSAYKDQVIATGLPASPGAAVGQVVFTAEDAEAWHSQGKAAILVRAETSPEDVGGMHAAVGILTERGGMTSHAAVVARGWGKCCVSGCSGIRVNDAEKLVTIGGHVLREGEWLSLNGSTGEVILGKQPLSPPALSGDLGTFMAWVDDVRKLKVLANADTPDDALTARNNGAQGIGLCRTEHMFFASDERIKAVRQMIMAPTLELRQQALDRLLPYQRSDFEGIFRAMDGLPVTIRLLDPPLHEFLPEGNIEDIVSELCAETGANQEDALARIEKLSEVNPMLGFRGCRLGISYPELTEMQARAIFEAAIAMTNQGVQVFPEIMVPLVGTPQELGHQVTLIRQVAEKVFANVGKTIGYKVGTMIEIPRAALVADEIAEQAEFFSFGTNDLTQMTFGYSRDDVGKFIPVYLAQGILQHDPFEVLDQRGVGELVKFATERGRKARPNLKVGICGEHGGEPSSVAFFAKAGLDYVSCSPFRVPIARLAAAQVLV”, the protein production entry is given as “not failed”.

In the case of “TVSQLRSRITRFALAGRGMRETVTWSFISEKQALAFGGGQAQLKLVNPISADMSVMRPSLLPGLLVAAQRNADRGFPDFALFEVSNIYEDDTPDKQHRVAGGIRRGTEQFGGAGRFWNGNARAVDVFDAKADALAVLEACGLESGKVQIEVGAPDWYHPGRSGVIKLGSKIILGFFGVFHPATLEKLDISGPLCGFEIFLDRIP”, the protein production entry is on record as “failed”.

As for “VACKPKEKPSSATSLTDDALMDTVQRRTFNYFWDAAEPNSGLARERYHMDGEYPAGGPEIVTSGGSGFGIMAILAGIDRGYVSREEGLRRMEKIVGFLEKADRFKGAYPHWWNGETGHVQPFGQKDNGGDLVETAFLMQGLLAVHQYYAEGSAEEKKLAGRIDKLWREVDWNWYRHGGQNVLYWHWSPEYGWEMNFPVHGYNECLIMYILAAASPTHGVPAAVYHEGWAQNGAIVSPHKVEGIELHLRYQGGEAGPLFWAQYSFLGLDPVGLKDEYCPSYFNEMRNLTLVNREYCIRNPKHYKGYGPDCWGLTASYSVDGYAAHGPLERDDRGVISPTAALSSIVYTPDQSLQVMHHLYEMGDKVFGPYGFYDAFSETADWYPKRYLAIDQGPIAVMIENYRTGLLWKLFMSHPDVQNGLKKLGFNVKK”, the protein production entry is on record as “not failed”.

For “VADTDGHYRVRAITEISSFNETLGATFSDKEFDTIGGLVINKFGRLPKNGESITIEGFNFTVTRADSRRLHLLKVERIEPGVVEDADSHDSV”, the protein production entry is “not failed”.

For the sequence “VAKMRFIDIGANLLDEMYTGQYNDKPYHPPDLSAVLERAWAAGLEKLMITAGSLKEARAALELAKTDERLYCTVGCHPTRCKEFEDHPGGPEAYLQELLEVLKEGQALGKVVAVGECGLVATDYERLHFCDADTQKKYFEAQFRLAKESGLPMFLHLRAAADDFLDITGRHLGDFPRGGVVHSFDGTAEEAARVLAVPQLAIGINGCSLKTDDNLAVVGGLPLERIMLETDCPWCEIRPTHAGRKHVSAEALAGVTGAKDRKKFMPGCQVKSRNEPANIRQVLEVVAGVKGRTDLEAVADVIFGNTERMFFPTA”, the protein production entry was “not failed”.

On to “VAPLGLSVPSDVELPPTAKMHAIIERTASFVCRQGAQFEIMLKAKQARNSQFDFLRFDHYLNPYYKFIQKAMKEGRYTVLAENKSDEKKKSGVS”, for which the protein production result is on record as “not failed”.

Take “VATLYNDLKNKQTSVVEPKKPLPETWKNMHPCMVLNYMRPQCTFIVSGGTGTNQNNTFSMSVCVDNCEFNAEGPSKKAARYKLSALVCNKLFGTDYPQK”: the protein production entry was “failed”.

Consider “VATPRGRLRVASPVLFSQLAMGRIGAGFYAAYPEVIIEVTAEDRLVDLVEEQFDVAIRINPDPDSRLVGRCFARDRLVVVAAPELPRPMPGAIRQTPAIVTSSFQPTHWKLDNGHLVLKPIPKLWFSS”, for which the protein production result is “failed”.

As to “VEFSTLPAGPPAPPQDVTVQAGVTPATIRVSWRPPVLTPTGLSNGANVTGYGVYAKGQRVAEVIFPTADSTAVELVRLRSLEAKGVTVRTLSAQGESVDSAVAAVPPELLVPPTPHP”, the protein production entry is recorded as “not failed”.

For the sequence “VEGFKVMRDGIKVASDETLLTPRFYTTDFDEMERLFSLELNKNMDMEEFEAMLNEFKLDYNQRHFVRNETFKEAAEKIQGPTRKIFIEFLERSCTAEFSGFLLYKELGRRLKATNPVVAEIFTLMSRDEARHAGFLNKAMSDFNLALDLGFLTKNRKYTFFKPKFIFYATYLSEKIGYWRYISIYRHLQRNPDNQLYPLFEYFENWCQDENRHGDFFTAVLKARPEMVNDWAAKLWSRFFCLSVYITMYLNDHQRDAFYSSLGLNTTQFNQHVIIETNKSTERIFPAVPDVENPEFFRRMDLLVKYNAQLVNIGSMNLPSPIKAIMKAPILERMVAEVFQVFIMTPKESGSYDLDANKTALVY”, the protein production entry is recorded as “not failed”.

As for “VENLKAQALCSWTAKKDNHLNFSKHDIITVLEQQENWWFGEVHGGRGWFPKSYVKIIPGSE”, the protein production result is listed as “not failed”.

Take “VEVIRARRLLDGQASTTGYFDNIEHCIDEEFGQCSITSNDKLLLVGSGAYPMTLIQVAKETGASVIGIDIDPQAVDLGRRIVNVLAPNEDITITDQKVSELKDIKDVTHIIFSSTIPLKYSILEELYDLTNENVVVAM”: the protein production entry is on record as “failed”.

As for “VFHRFNEPGSRSGYSLYVPEYYDPDREWPLVMALHGGSGHGRLFLWSWLRDARARGAIVVAPTATGRTWALMGEDVDSPNLARILDEVRGHWRIDPSRLLLTGLSDGGTFCYVSGLTSDSPFTHLAPIAASFHPLLAGAADSARLRGLPIQIVHGRHDWMFPVEVARQAHEALVSAGADVSYREIADLSHSYPREANVALLDWL”, the protein production entry is listed as “failed”.

In the case of “VGFAPELYCGLENCYDVLEVNREEFDKQKLAKAYRALARKHHPDRVKNKEEKLLAEERFRVIATAYETLKDDEAKTNYDYYLDHPDQRFYNYYQYYRLRAAPKVDL”, the protein production result is on record as “not failed”.

For the sequence “VGKPKMDVDLLQVDADLKKEIFDAYYNTMKTAVMTEEKLAREVEIDKVKDTVKEVYAEKFSEHEEEAQLLKEVKQIAEDLEKDVVRELITIDKIRPDGRKLDEIRH”, the protein production result is recorded as “not failed”.

On to “VIGTWDCDTCLVQNKPEAIKCVACETPKPGTCVKRALTLT”, for which the protein production result is reported as “not failed”.

“VKRAVQKTSDLIVLGLPWKTTEQDLKEYFSTFGEVLMVQVKKDLKTGHSKGFGFVRFTEYETQVKVMSQRHMIDGRWCDCKLPNSKQSQD”: the protein production result is given as “not failed”.

For the sequence “VLIIPGGGYRRIVYEREGLDVGRWIAGQGYTAFILSYRMPSVNGYYSFADAKNALNFISYWAGMSERTFKSVGCMGFSAGGHLAGYITHLHYEEETSVRPDWMALIYPVISLDRSIAHQGCRKRLLDAGESEYSASLENSVTEYMPPVFIVHATDDKDVPVIHSLRYFNSIRDKGHHAEAHFFDKGGHGFGVSGKNGYPIEKWQSLLLEWLAEH”, the protein production entry is reported as “failed”.

“VMRLVTLRSHDQYNTTIYAMDDRYRGVFGRRDVLFMNEQDMAAQGLEHGDRVDIHTALPGSALTLEDITVVAYGIAPGTVGAYYPEANVLVPLNYLDEESGTPSYKSVPVRLTLRSKEIRPLVGGR”: the protein production result is “not failed”.

In the case of “VNPLLDSLQPYPFEKLRALFKDVTPNAGLAHISFGIGEPKHPTPALIRDAVVASLGGLSAYPATSGSPALRESIAKWVTQRYNLPPVDPATQVLPVSGSREALFSLAQTVLDPQKNAGGEPAIVLCPNPFYQIYEGAAILAGAQPYFVNSDPARNFACDYSAVPAEIWARTQLLYVCSPGNPTGAVLTLDDWRELFALSDRYGFVIASDECYSEIYFDEAKPPLGGLEAAHKLGRGFERLVMLSSLSKRSNVPGMRSGFVAGDAAILKDFLLYRTYHGAALSTVFQNASIAAWNDEAHVRENRAKYLQKFSTVTPMLAEVLDVRLPDAAFYLWADVSRTGLTDTVFAQRLYADYNVTVLPGSFLARTAHGVNPGRNFVRMALVADVDECTQGAQRIVDFCRALAG”, the protein production entry is “not failed”.

Consider “VPSLATAIGSSGDRPAALAELIGIIQNDGIRLPPVRIDSLHFAADTPYDTELIINPELGQRVLPSEVATAMREALSQVVDGGTAKRVQGTFKMQDGSVLAMGGKTGTGDNRIESIGAGGRILSSRAINRTATFVFYIGDNHFGALTAFVPGRAAEGFRFTSALPVQVLKGMAPILTPYLENHGQAMCNAPLADPPTGA”, for which the protein production entry is “failed”.

Turning to “VRGFLIVGNKAFTQPFSLNDLPGAGRMDVLCRCTSQALFISHGIRRDVEVYLLLLGPPSPPKSILIKGDEVRRMSPDERNVAGHIKKALAVECGKSWKKVHSGVYVSRKGLEELIEELSEKYSIIYLKEDGVDISNAQLPPNPLFVIGDHEGLTEEQEKVVERYAALKLSLSPLSLLAEQCVVIAHHHLDRLQF”, the protein production result was “not failed”.

As for “VRIVLVGSGNLATQTALALSEAASPPVQVWSRNAEHAERLASMLPGATATDRTEELLCDAELYLLAVSDHALESVAATLPPTSGIWAHTAGSMPMDTLRPYHAQIGVFYPLQTFSRERRVDYSSIPIYIEGNDESVVRLLESVARLISRNVLRCT”, the protein production result is reported as “failed”.

Consider “VRTLWISDVHLGTRDCQAEHLSAFLKRYQADKVYLVGDIIDGWKLRGGMYWPQAHTNVIRRLLTMSKRGTEVIYVTGNHDEFLRRYSKLILGNIQLVDEAEHVTADGRRFLVIHGDQFDVITRYHRWLAFLGDSAYEFTLTLNRWLNHWRAKYGYGYWSLSAYLKHKVKSAVNFISDFEEAIAHECVKRGLDGVVCGHIHHAEIRQVGGVEYLNCGDWVESCTALIEHLDGNIELFRLA”, for which the protein production result is “failed”.
